Experiment: yeast display, Sf9 membrane polyspecificity reagent, FACS + sequencing; frameworks hold sequencing errors
Procedure, shortened: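 Nanobodies came from a synthetic yeast display library in Saccharomyces cerevisiae BJ5465, induced with galactose for 36–48 hours and stained for 1 hour at 4 °C with 10% biotinylated, detergent-solubilized Sf9 membrane reagent. Cells were enriched on streptavidin microbeads and then FACS-sorted, with low and high (top ~1%) gates set on anti-HA fluorescence for expression and streptavidin fluorescence for reagent binding. Each polyreactivity label reflects the gate a clone came from. Genes were amplified by colony PCR, sequenced by MiSeq 2 × 250 and filtered by CDR length.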

Sequence | polyreactivity (PSR sort gate)
QLQLVESGGGLVQAGGSLRLSCAATGRIFRFYALGWYRQATGKERELVADISRRGGSTYFADSVKGRFTISRDNAKNTVYVQMTSLKPEDTAVYYCNARWYRTGSTYHEDYWGQGTQVTVSS | high polyreactivity
QLQLVESGGGLVQAGGSLRLSCSASGGTFYRNAMGWSRQAPGKESELVPSISRTGGSTYYADSVKGRFTISRDNAKNTVYLQMNILKPEDTAVYYCANKQPRYSYFDNDYWGQGTQVTVSS | high polyreactivity
QLQLVESGGGLVQAGGSLSLSCAASGRIFYVYAMGWYRQAPGKEREFVAAITRRSGSTYYADSVKGRFTISRDNAKNTVYFQMNSLKPEDTSVYYCNARLKYAIPQVPPYDYWGQGTQVTVSS | high polyreactivity
QLQLVESGGGLVQAGGSRRLSCAASGSTFGRYAMGWYRQAPGKERELVAAISRRGTSTYYADSVKGRFTISRDNAKNTVYIQMNSLKPEDTAVYYSNAVTSSFYNRDSDYWGQGTQVTVSS | high polyreactivity
QLQLVESGGGLVQARGSLRLSCASSGSPFEGYAMGRSRQAPGKERELVARITIGGSTNYADSVKGRFTISRDNAKNSVYLQMNSLKPDDTAVYYCAADYRWGYYFTFYYWGQGTQVTVSY | high polyreactivity
QLQLVESGGWLVQAGGSLRLSCAASGGTIVTYAMGWYRQAPGKERELVAAISRRGGSTFSADSVKGRFTISRDNAKNTVYLQMNSLKPADTAVYYCAALSNHGYYIRMDYWGHGTQVTVSS | high polyreactivity
QLQLVESGRGLVQAGGSLRLSCAASGITFPGYAMGWYRQAPGKERELVAAIDWSGDGTYYADSVKGRFTISRENAKNTVYFQMNSLKPEDTAVFYCAKDNYPNHSTVLAVIYDNWGQGTQVTVSS | low polyreactivity
QLQLVESGRGLVQAGGSLRLSCAASGRTFVYYPMGSYRQAPGKERELVASISSVGTTKYADSVKGRFTISRDNAKNTVYLQMNCLKPEDTAVYYCAAVPLSRNIFDSWGQGTQVSVSS | low polyreactivity
QLQLVESGVGLVQAGGSLRLSCAPSGFTSTYYAMAWYSQAPGKERELVAAITSSGTRTYYADSVKGRFTISRENAKNTVYLQMNSLKPEDTAVYYCNAALRKGMYYWGQGTQVTVSS | high polyreactivity
QLRLVESGGGLVQAGGSLRLSCAAYGFIFRNNAMGWYRQAPGKERELVAVISFSGGSTYYADSVKGRFTISRDNAKHTVYLQMNSLKPEDTAVYYCAADDYQVQYDYWGQGTQVTVSS | low polyreactivity
QQQLVESGGGVVQAGGSLRLSCAASGSTFSGYAMGWYIPAPGKERELVAAIRKSGGSKYYADSVKGRFTISRDNAKNTVYLQMNSLKPEDTAVYYCNARRDLQYSQYKRYGYWGQGTQVNVSS | low polyreactivity
QVEHVDSGRGLVQAGGSLRLSCAASGSIIRSYAMGWYRQAPGKERELVAAISWRGGRTYYADSLKGRFTISRDNAKNTVYLQMNSLKPEDTAVYFCAARKRAQQGTRDHDYWGQGTQLTVSS | high polyreactivity
QVELVESAAGLVQAGASLRLSCAASGTTIKSYVMGWYRQPPGKETELVAAISSGDSTYYADSVKGRFTISRDNAKNTVYLQMNSLNPEDTAVYYCAADPCYSVEPWEDDYWGQGSQVTVSS | low polyreactivity
QVELVESGGGLVQAGGSLRLSCAASGRTFTPYAMGWYRQAPGKEREFVAAISIVGRTKYADSVKGRFTISRDNAKNTVYLQMNSLKPEDTAVYYCNAQDSRDRKFYWGYTRGHWGQGTQVTVSS | low polyreactivity
QVELVESGGGLVQAGGSLRLSCAASGSIFTVYAMGWYRQAPGKERELVAAISSSGGRTYYADSVKGRFTISRDNAKNTVYLQMNSLKPEDTAVYYCNTGPGQSFRYNYWGQGTQVTVSS | high polyreactivity
QVELVESGGGLVQAGGSLRLSCAASGSTFSINAMGWYRQAPGKERELVADITWRGVRTYYADSVKGRFTISRDNAKNTVYLQMNSLKPEDTAVYYCAADVVVDGHPGFDYWGQGTQVTVSS | high polyreactivity
QVELVESGGGLVQAGGSLRLSCAASGSTFVDNDMGWYRQAPGKERELVAAAITARGGSTYYADSVTGRFTISRDNAKNTDYIQMNSLKPEDTAVYYCAAGRPGELDYWGQGTQVTVSS | low polyreactivity
